In paper PMC7612645:

Experiments:
[1] = molecular target: HBV core protein (Cp) dimer (Hepatitis B virus) (UniProt P03146); experiment: NCP reassembly, SEC-MALLS with RNase A challenge; details: 20 mM HEPES pH 7.5, 250 mM NaCl, 5 mM DTT, DMSO +/- compound, <0.15 M GuHCl, room temperature; Cp titrated in 10 steps to 1.2 uM
[2] = molecular target: HBV core protein (Cp) dimer (Hepatitis B virus) (UniProt P03146); experiment: fluorescence anisotropy; details: 20 mM HEPES pH 7.5, 250 mM NaCl, 5 mM DTT, DMSO +/- compound, <0.15 M GuHCl, room temperature; Cp titrated in 10 steps to 1.2 uM; scale: normalized anisotropy change vs no compound

Chain of HBV core protein (Cp) dimer (Hepatitis B virus) (P03146 whole entry): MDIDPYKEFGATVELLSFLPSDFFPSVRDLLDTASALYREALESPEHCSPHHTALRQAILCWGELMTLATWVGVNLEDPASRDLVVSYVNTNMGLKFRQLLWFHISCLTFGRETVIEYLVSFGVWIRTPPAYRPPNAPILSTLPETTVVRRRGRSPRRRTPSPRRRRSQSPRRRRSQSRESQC

Substance | binding signal (% NCP yield vs control) [1] | binding signal [2]
HBV gRNA transcript | 90 | 
HBV gRNA transcript, dye-labelled |  | 0.477
